Experiment [1] has as its target T1, full-length human U1A protein (human, UniProt P09012 1-282). The experiment can be described thus: ITC.
The target of experiment [2] is T1, full-length human U1A protein. Briefly: ITC. This is another data set of the same source.
In experiment [3] the target is T2, full-length human U2B″ protein (human, UniProt P08579 1-225). Briefly: ITC.
In experiment [4] the target is T2, full-length human U2B″ protein. Briefly: ITC. This is another data set of the same source. A general note: ITC needs no label: the signal is the heat of the interaction.
Experiment [5] has the same target. Briefly: other fluorescence titration.
Experiment [6] concerns the target T1, full-length human U1A protein. The experiment can be described thus: other fluorescence titration.
Experiment [7] deals with T2, full-length human U2B″ protein. Briefly: other fluorescence titration. The source holds these as a separate data set.

Data on one molecule can be found in PMC4067145 (Biochemistry, 2014).

T2 sequence (P08579 whole entry): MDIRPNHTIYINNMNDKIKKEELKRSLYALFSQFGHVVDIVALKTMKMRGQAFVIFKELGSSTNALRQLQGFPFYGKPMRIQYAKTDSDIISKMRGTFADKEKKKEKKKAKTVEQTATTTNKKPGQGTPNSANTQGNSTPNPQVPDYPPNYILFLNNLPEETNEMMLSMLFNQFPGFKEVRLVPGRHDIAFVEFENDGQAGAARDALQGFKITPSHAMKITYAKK

B1: human U2A′ protein, truncated form that included the first 180 amino acids (LRR domain) (domain or fragment)
chain: MVKLTAELIEQAAQYTNAVRDRELDLRGYKIPVIENLGATLDQFDAIDFSDNEIRKLDGFPLLRRLKTLLVNNNRICRIGEGLDQALPCLTELILTNNSLVELGDLDPLASLKSLTYLSILRNPVTNKKHYRLYVIYKVPQVRVLDFQKVKLKERQEAEKMFKGKRGAQLAKDIARRSKT
The term Kd denotes the equilibrium constant for the complex coming apart. A higher Kd goes with a looser complex. Turning to B1, the Kd is 1000 nM in experiment [1]; 830 nM in experiment [2]; 5.9 nM in experiment [3]; 6 nM in experiment [4]; 5.1 nM in experiment [5]; 1400 nM in experiment [6]. Binding in experiment [7] was characterised by a dissociation constant (Kd) of 4.4 nM.
